The results in this text go back to patent publication US20220332804A1 (CSL INNOVATION, published 2022).

Holding throughout (experiment): SPR, antibody captured, C2 as analyte;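 further: biacore SPR at 37 °C, anti-C2 mAbs captured via goat anti-human IgG on CM5 chips, double-referenced sensorgrams fit to a 1:1 kinetic or steady-state model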
One experiment deals with T1, human C2 F437A (human, UniProt P06681 21-752).
T1 sequence: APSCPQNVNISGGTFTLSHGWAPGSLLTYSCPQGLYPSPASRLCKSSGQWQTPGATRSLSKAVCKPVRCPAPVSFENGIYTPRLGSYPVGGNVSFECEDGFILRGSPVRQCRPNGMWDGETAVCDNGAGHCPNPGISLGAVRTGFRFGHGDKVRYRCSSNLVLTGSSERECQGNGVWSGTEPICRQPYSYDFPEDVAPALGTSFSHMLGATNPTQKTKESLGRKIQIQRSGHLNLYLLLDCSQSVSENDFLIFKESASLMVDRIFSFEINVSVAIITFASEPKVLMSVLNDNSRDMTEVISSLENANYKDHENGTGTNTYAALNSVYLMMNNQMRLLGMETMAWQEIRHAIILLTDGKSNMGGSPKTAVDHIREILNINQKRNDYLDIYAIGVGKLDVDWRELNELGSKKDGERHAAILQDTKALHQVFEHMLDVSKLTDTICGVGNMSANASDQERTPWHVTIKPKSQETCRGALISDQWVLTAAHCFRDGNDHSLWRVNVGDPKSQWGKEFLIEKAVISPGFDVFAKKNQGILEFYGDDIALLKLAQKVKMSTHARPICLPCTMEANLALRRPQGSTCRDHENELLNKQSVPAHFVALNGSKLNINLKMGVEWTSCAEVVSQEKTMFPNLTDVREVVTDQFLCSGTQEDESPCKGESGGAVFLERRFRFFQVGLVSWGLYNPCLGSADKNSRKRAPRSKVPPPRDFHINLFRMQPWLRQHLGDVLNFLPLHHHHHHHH

Another experiment concerns the target T2, human C2 A470S (human, UniProt P06681 21-752).
T2 sequence: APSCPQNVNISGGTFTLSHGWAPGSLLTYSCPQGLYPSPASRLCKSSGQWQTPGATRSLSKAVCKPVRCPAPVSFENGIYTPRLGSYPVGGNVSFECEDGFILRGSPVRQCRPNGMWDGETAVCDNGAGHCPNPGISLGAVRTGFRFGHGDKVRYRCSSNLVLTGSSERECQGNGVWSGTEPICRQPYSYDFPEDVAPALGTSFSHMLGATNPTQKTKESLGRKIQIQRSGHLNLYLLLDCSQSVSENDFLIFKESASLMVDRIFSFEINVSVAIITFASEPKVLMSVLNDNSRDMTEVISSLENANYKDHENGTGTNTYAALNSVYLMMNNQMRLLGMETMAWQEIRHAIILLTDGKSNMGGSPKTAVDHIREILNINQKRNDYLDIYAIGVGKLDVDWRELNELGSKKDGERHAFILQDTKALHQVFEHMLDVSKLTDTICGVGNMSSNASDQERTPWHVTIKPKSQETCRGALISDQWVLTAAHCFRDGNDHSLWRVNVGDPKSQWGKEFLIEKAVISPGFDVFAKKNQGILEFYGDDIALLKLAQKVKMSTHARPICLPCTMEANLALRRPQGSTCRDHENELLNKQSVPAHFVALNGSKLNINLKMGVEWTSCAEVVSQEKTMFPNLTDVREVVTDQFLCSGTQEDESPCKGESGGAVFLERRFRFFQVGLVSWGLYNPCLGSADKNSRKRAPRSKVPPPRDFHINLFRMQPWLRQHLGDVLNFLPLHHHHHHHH

A further experiment has as its target T3, human C2 D511A (human, UniProt P06681 21-752).
T3 sequence: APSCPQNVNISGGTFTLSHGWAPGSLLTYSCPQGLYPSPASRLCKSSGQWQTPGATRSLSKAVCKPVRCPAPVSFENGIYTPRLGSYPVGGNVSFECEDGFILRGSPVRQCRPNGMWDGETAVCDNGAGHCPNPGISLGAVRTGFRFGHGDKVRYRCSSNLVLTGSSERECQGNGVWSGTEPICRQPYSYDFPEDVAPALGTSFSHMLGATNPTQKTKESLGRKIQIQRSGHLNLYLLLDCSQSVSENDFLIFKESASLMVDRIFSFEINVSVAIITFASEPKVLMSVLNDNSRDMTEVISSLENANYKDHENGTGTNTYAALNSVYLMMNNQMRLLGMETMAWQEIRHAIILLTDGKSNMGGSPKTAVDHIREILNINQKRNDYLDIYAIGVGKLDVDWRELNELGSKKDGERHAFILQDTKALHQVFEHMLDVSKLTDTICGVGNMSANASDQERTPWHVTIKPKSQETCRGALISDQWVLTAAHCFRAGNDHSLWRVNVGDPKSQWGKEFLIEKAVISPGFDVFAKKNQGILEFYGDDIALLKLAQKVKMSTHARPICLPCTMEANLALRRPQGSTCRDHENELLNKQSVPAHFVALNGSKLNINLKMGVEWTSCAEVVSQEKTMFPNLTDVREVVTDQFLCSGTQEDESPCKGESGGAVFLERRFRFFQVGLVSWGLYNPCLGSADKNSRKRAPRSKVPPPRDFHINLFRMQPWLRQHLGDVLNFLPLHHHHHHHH

In a further experiment the target is T4, human C2 S456A (human, UniProt P06681 21-752).
T4 sequence: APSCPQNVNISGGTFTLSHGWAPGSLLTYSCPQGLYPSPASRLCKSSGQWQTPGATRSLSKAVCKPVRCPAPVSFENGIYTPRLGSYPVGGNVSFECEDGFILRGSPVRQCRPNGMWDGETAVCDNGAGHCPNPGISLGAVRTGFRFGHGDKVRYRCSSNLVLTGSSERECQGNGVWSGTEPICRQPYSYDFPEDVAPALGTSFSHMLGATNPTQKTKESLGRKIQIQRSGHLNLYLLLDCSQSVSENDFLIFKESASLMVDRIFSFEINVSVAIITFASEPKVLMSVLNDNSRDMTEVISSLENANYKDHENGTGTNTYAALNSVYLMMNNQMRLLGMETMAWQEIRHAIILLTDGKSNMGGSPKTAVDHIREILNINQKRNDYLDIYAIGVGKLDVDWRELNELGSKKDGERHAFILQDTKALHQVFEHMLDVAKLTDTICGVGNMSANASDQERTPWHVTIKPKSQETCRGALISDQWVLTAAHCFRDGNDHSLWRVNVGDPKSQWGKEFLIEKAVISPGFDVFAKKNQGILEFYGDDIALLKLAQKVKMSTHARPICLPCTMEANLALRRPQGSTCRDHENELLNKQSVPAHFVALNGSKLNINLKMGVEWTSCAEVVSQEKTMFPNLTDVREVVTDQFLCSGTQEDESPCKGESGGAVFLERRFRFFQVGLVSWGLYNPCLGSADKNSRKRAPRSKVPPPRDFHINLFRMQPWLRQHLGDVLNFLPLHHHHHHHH

B1: RF16-226 (antibody, human IgG4 S228P, lambda)
heavy: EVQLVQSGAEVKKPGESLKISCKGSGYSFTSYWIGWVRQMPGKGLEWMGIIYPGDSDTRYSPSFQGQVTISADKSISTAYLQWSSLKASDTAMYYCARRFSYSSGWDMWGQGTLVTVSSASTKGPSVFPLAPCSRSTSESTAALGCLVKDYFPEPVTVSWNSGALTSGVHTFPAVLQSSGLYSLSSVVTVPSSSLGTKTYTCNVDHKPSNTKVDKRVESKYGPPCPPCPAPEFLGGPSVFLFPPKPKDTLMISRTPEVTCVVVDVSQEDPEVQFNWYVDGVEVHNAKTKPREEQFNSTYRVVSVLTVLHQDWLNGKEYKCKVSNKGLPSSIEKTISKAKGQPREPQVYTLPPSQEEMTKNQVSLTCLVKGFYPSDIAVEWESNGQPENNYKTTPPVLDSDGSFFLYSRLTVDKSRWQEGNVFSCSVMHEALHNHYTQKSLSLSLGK
light: SYELTQPPSVSVSPGQTARITCSGDALTSKYVAWYQQKSGLAPLLVIYEDTRRPSGIPAKFSGSSSGSVATLTISGAHGDDEADYYCYSTDASGHQRVFGGGTKLTVLSQPKAAPSVTLFPPSSEELQANKATLVCLISDFYPGAVTVAWKADGSPVKAGVETTKPSKQSNNKYAASSYLSLTPEQWKSHRSYSCQVTHEGSTVEKTVAPTECS
notes: pH-dependent anti-C2 antibody from a phage display library; also called WT
Consider B1, for which the Kd with human C2 F437A is 260 nM; in the experiment with human C2 A470S, 7.8 nM; with human C2 D511A, 31.2 nM; in the experiment with human C2 S456A, 71.8 nM.
